Columns and labels:
[1] = target: T1, PD1 on activated human CD4 and CD8 T cells (human, UniProt Q15116 25-288); assay: flow cytometry, CD3/CD28-activated human PBMCs gated on CD3+CD8+ T cells, FITC anti-human Fc secondary antibody; no Matriptase digestion described
T1 construct: whole, on cells; Endogenous PD1 on CD3/CD28-stimulated T cells; also called human PD1; PD1 receptor
Procedure: (§1) PBMCs were bought from Biomex from a healthy donor (Lot 5000899PB). The PBMCs were stimulated for 3 days with CD3 and CD28 to induce upregulation of PD1 on T cells. Therefore, PBMCs were seeded in medium (RPMI1640, 10% FCS, 2 mM Glutamine) into cell culture flasks that were coated for 1 h at 37° C. with 1 μg/ml CD3 (clone OKT3, 302914, BioLegend). CD28 was added in solution to the PBMCs at a concentration of 1 μg/ml (clone CD28.2, 302914, BioLegend). After three days, PBMCs were harvested and transferred into a 96 well round bottom plate (200′000 cells per well). The cells were washed with FACS buffer (PBS, 2% FBS, 5 mM EDTA, 0.025% NaN3) and stained with 30 μl of corresponding TA PD1-IL2v constructs in FACS buffer for 30 min at 4° C. The cells were washed twice with FACS buffer to remove unbound molecules. Then 30 μl of the diluted FITC anti-mouse Fc specific secondary antibody (1:50 dilution, 115-096-071, Jackson ImmunoResearch) or for the human constructs the diluted FITC anti-human Fc specific secondary antibody (1:50 dilution, 115-096-098, Jackson ImmunoResearch) was added to the cells. After 30 min incubation at 4° C. the cells were washed twice with FACS buffer. To detect T cells, PBMCs were stained with 30 μl of a mixture of CD3 PE/Cyanine7 (clone UCHT1, 300420, BioLegend), CD4 PE (clone RPA-T4, 300508, BioLegend) and CD8 APC (clone SK1, 344722, BioLegend) for 30 min at 4° C. The unbound antibodies were removed by washing twice with FACS buffer. Finally the cells were resuspended in 150 μl FACs buffer and measured using a BD Fortessa gating on CD3+CD4+ cells (CD4 T cells) and CD3+CD8+ cells (CD8 T cells).

[2] = target: T1, PD1 on activated human CD4 and CD8 T …; assay: flow cytometry, CD3/CD28-activated human PBMCs gated on CD3+CD4+ T cells, PE anti-human Fc secondary antibody; TA constructs pre-incubated with Matriptase, unmasked controls not
Procedure: (§2) Three formats of TA PD1-IL2v molecules and respective controls were assessed for their capacity to bind to activated PD1 positive CD8 T cells and CD4 T cells within PBMCs in comparison to the respective unmasked molecules.
(§3) PBMCs were purchased from Biomex from a healthy donor (Lot 5000729PB). The PBMCs were stimulated for three days with CD3 and CD28 to induce upregulation of PD1 on T cells. Therefore, PBMCs were seeded in medium (RPMI1640, 10% FCS, 2 mM Glutamine) into cell culture flasks that were coated for 1 hour at 37° C. with 1 μg/ml CD3 (clone OKT3, 302914, BioLegend). CD28 was added in solution to the PBMCs at a concentration of 1 μg/ml (clone CD28.2, 302914, BioLegend). After three days, PBMCs were harvested and transferred into a 96 well round bottom plate (200′000 cells per well). The cells were washed with FACS buffer (PBS, 2% FBS, 5 mM EDTA, 0.025% NaN3) and stained with 30 μl of corresponding TA PD1-IL2v constructs in FACS buffer for 30 min at 4° C. Prior to the staining, 20 μg of the TA PD1-IL2v constructs were digested with 4 μl Matriptase (Enzo ˜2.5 U/μl, ALX-201-246-U25, Lot 12152015, or without Matriptase for the unmasked controls) for 2 hours at 37° C. in 40 μl Matriptase buffer (50 mM Tris, 50 mM NaCl, 0.01% Tween 20, pH 9.0). After the staining, the cells were washed twice with FACS buffer to remove unbound molecules. Then 30 μl of the diluted PE anti-human Fc specific secondary antibody (1:50 dilution, 109-116-170, Jackson ImmunoResearch) was added to the cells. After 30 min incubation at 4° C. the cells were washed twice with FACS buffer. To detect T cells, PBMCs were stained with 30 μl of a mixture of CD3 PE/Cyanine7 (clone UCHT1, 300420, BioLegend), CD4 FITC (clone RPA-T4, 300528, BioLegend) and CD8 APC/Cyanine7 (clone HIT8a, 300926, BioLegend) for 30 min at 4° C. The unbound antibodies were removed by washing twice with FACS buffer. Finally the cells resuspended in 150 μl FACS buffer and measured using a BD Fortessa gating on CD3+CD4+ cells (CD4 T cells) and CD3+CD8+ cells (CD8 T cells).

[3] = target: T1, PD1 on activated human CD4 and CD8 T …; assay: flow cytometry, CD3/CD28-activated human PBMCs gated on CD3+CD4+ T cells, FITC anti-human Fc secondary antibody; no Matriptase digestion described
Procedure: as §1

[4] = target: T1, PD1 on activated human CD4 and CD8 T …; assay: flow cytometry, CD3/CD28-activated human PBMCs gated on CD3+CD8+ T cells, PE anti-human Fc secondary antibody; TA constructs pre-incubated with Matriptase, unmasked controls not
Procedure: as §2, §3

T1 sequence (Q15116 25-288): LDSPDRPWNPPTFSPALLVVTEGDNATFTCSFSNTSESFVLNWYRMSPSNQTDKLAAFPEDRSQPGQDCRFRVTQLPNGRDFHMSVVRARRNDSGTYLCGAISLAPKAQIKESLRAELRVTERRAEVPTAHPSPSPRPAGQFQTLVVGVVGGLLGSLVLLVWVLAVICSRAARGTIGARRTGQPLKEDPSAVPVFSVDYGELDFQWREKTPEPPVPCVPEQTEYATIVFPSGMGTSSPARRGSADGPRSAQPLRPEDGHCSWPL

Row | Binder | EC50 (read off the curve) [1] [nM] | EC50 (read off the curve) [2] [nM] | EC50 (read off the curve) [3] [nM] | EC50 (read off the curve) [4] [nM]
1 | human TA PD1-IL2v, MT204, 2xPQARK, in line (antibody, human IgG1, kappa, L234A L235A, Bivalent human PD1-targeted human IgG PG LALA with IL2v and MT204 scFv mask 'in-line' on the C-terminus of the Fc knob chain, two PQARK sites; also called P1AG9606; P1AG9606-008) light: DIVMTQSPDSLAVSLGERATINCKASESVDTSDNSFIHWYQQKPGQSPKLLIYRSSTLESGVPDRFSGSGSGTDFTLTISSLQAEDVAVYYCQQNYDVPWTFGQGTKVEIKRTVAAPSVFIFPPSDEQLKSGTASVVCLLNNFYPREAKVQWKVDNALQSGNSQESVTEQDSKDSTYSLSSTLTLSKADYEKHKVYACEVTHQGLSSPVTKSFNRGEC heavy 1: EVQLLESGGGLVQPGGSLRLSCAASGFSFSSYTMSWVRQAPGKGLEWVATISGGGRDIYYPDSVKGRFTISRDNSKNTLYLQMNSLRAEDTAVYYCVLLTGRVYFALDSWGQGTLVTVSSASTKGPSVFPLAPSSKSTSGGTAALGCLVKDYFPEPVTVSWNSGALTSGVHTFPAVLQSSGLYSLSSVVTVPSSSLGTQTYICNVNHKPSNTKVDKKVEPKSCDKTHTCPPCPAPEAAGGPSVFLFPPKPKDTLMISRTPEVTCVVVDVSHEDPEVKFNWYVDGVEVHNAKTKPREEQYNSTYRVVSVLTVLHQDWLNGKEYKCKVSNKALGAPIEKTISKAKGQPREPQVCTLPPSRDELTKNQVSLSCAVKGFYPSDIAVEWESNGQPENNYKTTPPVLDSDGSFFLVSKLTVDKSRWQQGNVFSCSVMHEALHNHYTQKSLSLSPG heavy 2: not shown | ~2 | ~0.8 | ~2 | ~1
2 | TA PD1-IL2v, MT204, non cleavable, N-term (antibody, human IgG1, kappa, L234A L235A, also called human TA PD1-IL2v, MT204, non cleavable, N-term; P1AG0929) light chain of the anti-human PD1 Fab (C02011851-A): DIVMTQSPDSLAVSLGERATINCKASESVDTSDNSFIHWYQQKPGQSPKLLIYRSSTLESGVPDRFSGSGSGTDFTLTISSLQAEDVAVYYCQQNYDVPWTFGQGTKVEIKRTVAAPSVFIFPPSDEQLKSGTASVVCLLNNFYPREAKVQWKVDNALQSGNSQESVTEQDSKDSTYSLSSTLTLSKADYEKHKVYACEVTHQGLSSPVTKSFNRGEC heavy chain, Fc hole, PG LALA (C01483382-H): EVQLLESGGGLVQPGGSLRLSCAASGFSFSSYTMSWVRQAPGKGLEWVATISGGGRDIYYPDSVKGRFTISRDNSKNTLYLQMNSLRAEDTAVYYCVLLTGRVYFALDSWGQGTLVTVSSASTKGPSVFPLAPSSKSTSGGTAALGCLVKDYFPEPVTVSWNSGALTSGVHTFPAVLQSSGLYSLSSVVTVPSSSLGTQTYICNVNHKPSNTKVDKKVEPKSCDKTHTCPPCPAPEAAGGPSVFLFPPKPKDTLMISRTPEVTCVVVDVSHEDPEVKFNWYVDGVEVHNAKTKPREEQYNSTYRVVSVLTVLHQDWLNGKEYKCKVSNKALGAPIEKTISKAKGQPREPQVCTLPPSRDELTKNQVSLSCAVKGFYPSDIAVEWESNGQPENNYKTTPPVLDSDGSFFLVSKLTVDKSRWQQGNVFSCSVMHEALHNHYTQKSLSLSPGK MT204 scFv mask - non-cleavable linker - IL2v - Fc knob chain, PG LALA (C2184220946-K): not shown |  | ~1 |  | ~2
3 | human TA PD1-IL2v, MT204, non cleavable, in line (antibody, human IgG1, kappa, L234A L235A, Bivalent human PD1-targeted human IgG PG LALA with masked IL2v in-line on the Fc knob chain and no matriptase sites (non-cleavable control); also called P1AG5740; P1AG5740-004) light: DIVMTQSPDSLAVSLGERATINCKASESVDTSDNSFIHWYQQKPGQSPKLLIYRSSTLESGVPDRFSGSGSGTDFTLTISSLQAEDVAVYYCQQNYDVPWTFGQGTKVEIKRTVAAPSVFIFPPSDEQLKSGTASVVCLLNNFYPREAKVQWKVDNALQSGNSQESVTEQDSKDSTYSLSSTLTLSKADYEKHKVYACEVTHQGLSSPVTKSFNRGEC heavy 1: EVQLLESGGGLVQPGGSLRLSCAASGFSFSSYTMSWVRQAPGKGLEWVATISGGGRDIYYPDSVKGRFTISRDNSKNTLYLQMNSLRAEDTAVYYCVLLTGRVYFALDSWGQGTLVTVSSASTKGPSVFPLAPSSKSTSGGTAALGCLVKDYFPEPVTVSWNSGALTSGVHTFPAVLQSSGLYSLSSVVTVPSSSLGTQTYICNVNHKPSNTKVDKKVEPKSCDKTHTCPPCPAPEAAGGPSVFLFPPKPKDTLMISRTPEVTCVVVDVSHEDPEVKFNWYVDGVEVHNAKTKPREEQYNSTYRVVSVLTVLHQDWLNGKEYKCKVSNKALGAPIEKTISKAKGQPREPQVCTLPPSRDELTKNQVSLSCAVKGFYPSDIAVEWESNGQPENNYKTTPPVLDSDGSFFLVSKLTVDKSRWQQGNVFSCSVMHEALHNHYTQKSLSLSPG heavy 2: not shown | ~2 | ~0.8 | ~2 | ~1
4 | human TA PD1-IL2v, MT204, 2xPQARK, knob/hole (antibody, human IgG1, kappa, L234A L235A, Bivalent human PD1-targeted human IgG PG LALA; also called P1AG9607; P1AG9607-006) light: DIVMTQSPDSLAVSLGERATINCKASESVDTSDNSFIHWYQQKPGQSPKLLIYRSSTLESGVPDRFSGSGSGTDFTLTISSLQAEDVAVYYCQQNYDVPWTFGQGTKVEIKRTVAAPSVFIFPPSDEQLKSGTASVVCLLNNFYPREAKVQWKVDNALQSGNSQESVTEQDSKDSTYSLSSTLTLSKADYEKHKVYACEVTHQGLSSPVTKSFNRGEC heavy 1: EVQLLESGGGLVQPGGSLRLSCAASGFSFSSYTMSWVRQAPGKGLEWVATISGGGRDIYYPDSVKGRFTISRDNSKNTLYLQMNSLRAEDTAVYYCVLLTGRVYFALDSWGQGTLVTVSSASTKGPSVFPLAPSSKSTSGGTAALGCLVKDYFPEPVTVSWNSGALTSGVHTFPAVLQSSGLYSLSSVVTVPSSSLGTQTYICNVNHKPSNTKVDKKVEPKSCDKTHTCPPCPAPEAAGGPSVFLFPPKPKDTLMISRTPEVTCVVVDVSHEDPEVKFNWYVDGVEVHNAKTKPREEQYNSTYRVVSVLTVLHQDWLNGKEYKCKVSNKALGAPIEKTISKAKGQPREPQVCTLPPSRDELTKNQVSLSCAVKGFYPSDIAVEWESNGQPENNYKTTPPVLDSDGSFFLVSKLTVDKSRWQQGNVFSCSVMHEALHNHYTQKSLSLSPGGGGGSGGGGSPQARKGGGGSGGGGSGGGGSGGGGSGGGEVQLVESGGGLVQPGGSLRLSCAASGFTFSSYTLAWVRQAPGKGLEWVAAIDSSSYTYSPDTVRGRFTISRDNAKNSLYLQMNSLRAEDTAVYYCARDSNWDALDYWGQGTTVTVSSGGGGSGGPQARKGGGGSGGGDIQMTQSPSSLSASVGDRVTITCKASQNVGTNVGWYQQKPGKAPKALIYSASFRYSGVPSRFSGSGSGTDFTLTISSLQPEDFATYYCQQYYTYPYTFGGGTKVEIK heavy 2: not shown |  | ~0.8 |  | ~1

— US20240376171A1 (Hoffmann-La Roche, published 2024)
